Reference: PMC12102759

B1: TPTE2 peptide 92-107 (Phosphatidylinositol 3,4,5-trisphosphate 3-phosphatase TPTE2), 16-mer library wild type / TLN1 PTB (TLN1 Phosphotyrosine-binding (PTB) domain, residues 309-401) (parent)
chain 1: LADLIFTDSKLYIPLE
chain 2: GVSFFLVKEKMKGKNKLVPRLLGITKECVMRVDEKTKEVIQEWNLTNIKRWAASPKSFTLDFGDYQDGYYSVQTTEGEQIAQLIAGYIDIILK
B2: PIP5K1C peptide 640-655 (Phosphatidylinositol 4-phosphate 5-kinase type-1 gamma), 16-mer library wild type / TLN1 PTB (TLN1 Phosphotyrosine-binding (PTB) domain, residues 309-401) (parent)
chain 1: FPTDERSWVYSPLHYS
chain 2: B1 chain 2

Variants of: B1
Assay: proteomic peptide phage display deep mutational scan (ProP-PD DMS): M13 P8 16-mer library selected against immobilised GST-tagged bait for four days (rounds), NGS of the eluted pools per day and pseudo-replica
Conditions: with TLN1 PTB (TLN1 Phosphotyrosine-binding (PTB) domain, residues 309-401); bait immobilised on MaxiSorp plates (10 µg), library pre-cleared on GST, 2 h binding at 4 °C, five washes; one round per day, days 1-4; value from days 2 and 3; keep out of graded; scale: average fractional NGS count over selection days 2 and 3

screen value	Variant
0	chain 1 LADRIFTDSKLYIPLE
6.5e-05	chain 1 LADLIFTDSKAYIPLE
0.000112	chain 1 LADLIFTDSKFYIPLE
3.91e-05	chain 1 LADLIFTDSKSYIPLE
0	chain 1 LADLIFTDSKWYIPLE
4.09e-05	chain 1 LADLIFTDSKYYIPLE
6.68e-05	chain 1 LADLIFTDSKLYIPEE
3.85e-05	chain 1 LADLIFTDSKLYIPTE
0	chain 1 LADLIFTDSKLYIELE
0	chain 1 LADLIFTDSKLYIFLE
0	chain 1 LADLIFTDSKLYIMLE
0	chain 1 LADLIFTDSKLYIQLE
0	chain 1 LADLIFTDSKLYIRLE
2.74e-05	chain 1 LADLIFTDSKLYISLE
7.88e-05	chain 1 LADLIFTDSKLYIYLE
0	chain 1 LADLIFTDKKLYIPLE
4.1e-05	chain 1 LADLIFADSKLYIPLE
8.56e-05	chain 1 LADLIFEDSKLYIPLE
3.05e-05	chain 1 LADLIFFDSKLYIPLE
3.48e-05	chain 1 LADLIFIDSKLYIPLE
6.19e-05	chain 1 LADLIFRDSKLYIPLE
0	chain 1 LADLIFTDSKLLIPLE
0	chain 1 LADLIFTDSKLQIPLE

Second part, the variant before the results:

Variant	screen value
chain 1 LFDLIFTDSKLYIPLE	2.74e-05
chain 1 LVDLIFTDSKLYIPLE	0.000107
chain 1 LAALIFTDSKLYIPLE	4.9e-05
chain 1 LAFLIFTDSKLYIPLE	9.05e-05
chain 1 LAHLIFTDSKLYIPLE	0.000117
chain 1 LAWLIFTDSKLYIPLE	0
chain 1 LADLIFTHSKLYIPLE	2.4e-05
chain 1 LADLIFTKSKLYIPLE	2.8e-05
chain 1 LADLIFTMSKLYIPLE	0
chain 1 LADLIFTSSKLYIPLE	4.41e-05
chain 1 LADLIFTVSKLYIPLE	7.58e-05
chain 1 LADLIFTDSKLYIPLR	3.05e-05
chain 1 LADLIATDSKLYIPLE	0
chain 1 LADLIGTDSKLYIPLE	0
chain 1 LADLIMTDSKLYIPLE	0
chain 1 LADLIPTDSKLYIPLE	9.98e-05
chain 1 LADLISTDSKLYIPLE	0
chain 1 LADLIYTDSKLYIPLE	8.2e-05
chain 1 LADLIFTDSKLYDPLE	0
chain 1 LADLIFTDSKLYHPLE	7.12e-05
chain 1 LADLIFTDSKLYMPLE	3.76e-05
chain 1 LADLIFTDSKLYQPLE	8.06e-05
chain 1 LADLIFTDSKLYSPLE	9.27e-05
chain 1 LADLIFTDSKLYWPLE	0.000116
chain 1 LADLIFTDSKLYYPLE	5.85e-05
chain 1 LADLIFTDSVLYIPLE	7.83e-05
chain 1 LADLIFTDSWLYIPLE	6.74e-05
chain 1 LADKIFTDSKLYIPLE	6.56e-05
chain 1 LADNIFTDSKLYIPLE	5.11e-05

Variants of: B2
Assay: as above
Conditions: with TLN1 PTB (TLN1 Phosphotyrosine-binding (PTB) domain, residues 309-401); bait immobilised on MaxiSorp plates (10 µg), library pre-cleared on GST, 2 h binding at 4 °C, five washes; one round per day, days 1-4; value from days 2 and 3; keep out of graded; scale: average fractional NGS count over selection days 2 and 3

screen value	Variant
0.000116	chain 1 FPTDERSWVYSPAHYS
0	chain 1 FPTDERSWVYSPDHYS
0.00025	chain 1 FPTDERSWVYSPFHYS
0.000132	chain 1 FPTDERSWVYSPGHYS
0.000497	chain 1 FPTDERSWVYSPIHYS
0.000592	chain 1 FPTDERSWVYSPMHYS
4.75e-05	chain 1 FPTDERSWVYSPNHYS
5.12e-05	chain 1 FPTDERSWVYSPQHYS
0.000183	chain 1 FPTDERSWVYSPSHYS
0.00019	chain 1 FPTDERSWVYSPVHYS
0.00176	chain 1 FPTDERSWVYSPWHYS
0.000435	chain 1 FPTDERSWVYSPYHYS
4.1e-05	chain 1 FATDERSWVYSPLHYS
0.000759	chain 1 FDTDERSWVYSPLHYS
0.000182	chain 1 FETDERSWVYSPLHYS
2.4e-05	chain 1 FFTDERSWVYSPLHYS
9.49e-05	chain 1 FGTDERSWVYSPLHYS
2.4e-05	chain 1 FHTDERSWVYSPLHYS
0.000825	chain 1 FLTDERSWVYSPLHYS
0.000183	chain 1 FNTDERSWVYSPLHYS
7.98e-05	chain 1 FQTDERSWVYSPLHYS
5.46e-05	chain 1 FRTDERSWVYSPLHYS

screen value	Variant
0.000281	chain 1 FSTDERSWVYSPLHYS
0.000173	chain 1 FTTDERSWVYSPLHYS
0.000569	chain 1 FVTDERSWVYSPLHYS
0.000111	chain 1 FWTDERSWVYSPLHYS
6.83e-05	chain 1 FYTDERSWVYSPLHYS
0.000632	chain 1 FPTDERSWVYSALHYS
0.00013	chain 1 FPTDERSWVYSELHYS
7.27e-05	chain 1 FPTDERSWVYSFLHYS
0.000862	chain 1 FPTDERSWVYSGLHYS
5.79e-05	chain 1 FPTDERSWVYSHLHYS
0.000302	chain 1 FPTDERSWVYSILHYS
5.51e-05	chain 1 FPTDERSWVYSKLHYS
0.000701	chain 1 FPTDERSWVYSLLHYS
7.3e-05	chain 1 FPTDERSWVYSMLHYS
0.000185	chain 1 FPTDERSWVYSNLHYS
0.000705	chain 1 FPTDERSWVYSQLHYS
0.000314	chain 1 FPTDERSWVYSRLHYS
0.000121	chain 1 FPTDERSWVYSSLHYS
0.000179	chain 1 FPTDERSWVYSTLHYS
9.3e-05	chain 1 FPTDERSWVYSVLHYS
0.000107	chain 1 FPTDERSWVYSWLHYS
0.00241	chain 1 FPTDEASWVYSPLHYS

screen value	Variant
0.000455	chain 1 FPTDEDSWVYSPLHYS
0	chain 1 FPTDEESWVYSPLHYS
0	chain 1 FPTDEFSWVYSPLHYS
5.92e-05	chain 1 FPTDEGSWVYSPLHYS
3.76e-05	chain 1 FPTDEHSWVYSPLHYS
0.000686	chain 1 FPTDEISWVYSPLHYS
9.21e-05	chain 1 FPTDEKSWVYSPLHYS
0.000156	chain 1 FPTDELSWVYSPLHYS
0.00014	chain 1 FPTDEMSWVYSPLHYS
8.35e-05	chain 1 FPTDENSWVYSPLHYS
0.000213	chain 1 FPTDEPSWVYSPLHYS
9.86e-05	chain 1 FPTDEQSWVYSPLHYS
0.00302	chain 1 FPTDESSWVYSPLHYS
0.000205	chain 1 FPTDETSWVYSPLHYS
0.000984	chain 1 FPTDEVSWVYSPLHYS
0.000249	chain 1 FPTDEWSWVYSPLHYS
0.000115	chain 1 FPTDEYSWVYSPLHYS
8.2e-05	chain 1 FPTDERDWVYSPLHYS
6.81e-05	chain 1 FPTDEREWVYSPLHYS
6.31e-05	chain 1 FPTDERGWVYSPLHYS
0.00017	chain 1 FPTDERHWVYSPLHYS
0.00143	chain 1 FPTDERIWVYSPLHYS

screen value	Variant
0.000214	chain 1 FPTDERKWVYSPLHYS
0.00013	chain 1 FPTDERLWVYSPLHYS
0.000552	chain 1 FPTDERMWVYSPLHYS
3.76e-05	chain 1 FPTDERNWVYSPLHYS
0	chain 1 FPTDERPWVYSPLHYS
0.000434	chain 1 FPTDERRWVYSPLHYS
0.000136	chain 1 FPTDERTWVYSPLHYS
6.47e-05	chain 1 FPTDERVWVYSPLHYS
0.000136	chain 1 FPTDERWWVYSPLHYS
0.000136	chain 1 FPTDERYWVYSPLHYS
7.18e-05	chain 1 FPTDERSWVYAPLHYS
0	chain 1 FPTDERSWVYDPLHYS
0	chain 1 FPTDERSWVYIPLHYS
0	chain 1 FPTDERSWVYLPLHYS
3.45e-05	chain 1 FPTDERSWVYMPLHYS
7.58e-05	chain 1 FPTDERSWVYPPLHYS
0.000894	chain 1 FPTDERSWVYSPLHYA
0.000308	chain 1 FPTDERSWVYSPLHYE
0.000114	chain 1 FPTDERSWVYSPLHYF
0.00097	chain 1 FPTDERSWVYSPLHYG

Second part, the variant before the results:

Variant	screen value
chain 1 FPTAERSWVYSPLHYS	0.000109
chain 1 FPTEERSWVYSPLHYS	2.74e-05
chain 1 FPTFERSWVYSPLHYS	0.00015
chain 1 FPTGERSWVYSPLHYS	0.000716
chain 1 FPTHERSWVYSPLHYS	0.000241
chain 1 FPTIERSWVYSPLHYS	7.24e-05
chain 1 FPTLERSWVYSPLHYS	0.000325
chain 1 FPTMERSWVYSPLHYS	2.74e-05
chain 1 FPTNERSWVYSPLHYS	3.05e-05
chain 1 FPTPERSWVYSPLHYS	7.86e-05
chain 1 FPTQERSWVYSPLHYS	0.000121
chain 1 FPTRERSWVYSPLHYS	0.000156
chain 1 FPTSERSWVYSPLHYS	0.000264
chain 1 FPTTERSWVYSPLHYS	0.000121
chain 1 FPTVERSWVYSPLHYS	5.15e-05
chain 1 FPTWERSWVYSPLHYS	8.26e-05
chain 1 FPTDARSWVYSPLHYS	0.000188
chain 1 FPTDFRSWVYSPLHYS	0.000369
chain 1 FPTDGRSWVYSPLHYS	0.000212
chain 1 FPTDHRSWVYSPLHYS	0.000485
chain 1 FPTDIRSWVYSPLHYS	0.000716
chain 1 FPTDKRSWVYSPLHYS	0.000102
chain 1 FPTDLRSWVYSPLHYS	0.00192
chain 1 FPTDMRSWVYSPLHYS	0.000263
chain 1 FPTDNRSWVYSPLHYS	0.00102

Variant	screen value
chain 1 FPTDPRSWVYSPLHYS	0.00165
chain 1 FPTDQRSWVYSPLHYS	6.1e-05
chain 1 FPTDSRSWVYSPLHYS	0.000272
chain 1 FPTDTRSWVYSPLHYS	0.000451
chain 1 FPTDVRSWVYSPLHYS	0.00021
chain 1 FPTDWRSWVYSPLHYS	0.000904
chain 1 FPTDYRSWVYSPLHYS	0.000182
chain 1 FPTDERSWVYSPLAYS	0.000225
chain 1 FPTDERSWVYSPLDYS	0.000394
chain 1 FPTDERSWVYSPLEYS	0.000433
chain 1 FPTDERSWVYSPLFYS	2.74e-05
chain 1 FPTDERSWVYSPLGYS	0.00022
chain 1 FPTDERSWVYSPLIYS	4.44e-05
chain 1 FPTDERSWVYSPLKYS	0.00016
chain 1 FPTDERSWVYSPLLYS	9.59e-05
chain 1 FPTDERSWVYSPLMYS	0.00119
chain 1 FPTDERSWVYSPLNYS	3.05e-05
chain 1 FPTDERSWVYSPLPYS	0.000231
chain 1 FPTDERSWVYSPLQYS	0.000124
chain 1 FPTDERSWVYSPLRYS	0.000159
chain 1 FPTDERSWVYSPLSYS	0.000388
chain 1 FPTDERSWVYSPLTYS	0.00119
chain 1 FPTDERSWVYSPLVYS	0.000348
chain 1 FPTDERSWVYSPLWYS	5.14e-05
chain 1 FPTDERSWVYSPLYYS	0.000112
